# According to patent US11160888B2, “PET tracer for imaging of neuroendocrine tumors” (priority 2011, dated 2021):
# Assays:
# [1] = 64Cu-DOTATATE PET biodistribution by SUV quantitation in neuroendocrine tumor patients; settings: both, human, pituitary, adrenals, spleen, iv, 200 MBq, total radioactivity
# Text: (§1) Fourteen consecutively enrolled patients participated in this pilot study and underwent PET scanning with the new tracer on several time points. Patients were eligible in case of a histopathologically confirmed neuroendocrine tumor including positive immunostainings for chromogranin A and synaptophysin. They got offered study inclusion in case of referral to conventional SRI as part of routine follow-up. The maximum allowed time interval between both imaging modalities was 60 days. According to local clinical routine there was no need for interruption of biotherapy e.g. withdrawal of long- or short-time acting somatostatin analogs. However, patients must not have undergone major surgical interventions or systemic chemotherapy between conventional SRI and the PET scanning. The study group consisted of thirteen patients with gastroenteropancreatic neuroendocrine tumors (2 foregut, 6 midgut, 5 NET of unknown origin) and one patient with a known mutation in the multiple endocrine neoplasia I gene, who was diagnosed with a bronchogenic NET ten years ago. Age ranged from 40-80 years. Gender distribution: four women, ten men. Ten of the tumors were active functioning causing classical carcinoid syndromes mainly due to hepatic tumor load. One patient had shown clinical and biochemical manifestations of a Zollinger-Ellison syndrome at time of diagnosis. Twelve patients were in advanced disease state—TNM stage IV according to most recently both UICC/AJCC and ENETS classifications. Two patients had undergone respectively R0- and R1-resections, both without detectable disease so far. Patient recruiting and follow-up was carried out at the Department of Abdominal Surgery C. SRI was performed at the Department of Clinical Physiology, Nuclear Medicine and PET. Both departments are part of the Neuroendocrine Tumor Center of Excellence, Rigshospitalet, University of Copenhagen, Denmark. All patients had given written informed consent prior to inclusion. The study was approved by the Danish Medicines Agency and the Regional Research Ethics Committee.
# (§2) PET-CT images were acquired on an integrated PET-CT Siemens Biograph True X, multi-slice. […] Imaging was performed 1h, 3h and 24h after injection.
# (§3) Planar whole-body scans/SPECT-CT and PET-CT images were evaluated by two separate teams consisting of both a nuclear medicine physician and a radiologist. Both teams were briefed about the patients past medical history. When abnormal findings only detected on co-registered CT had led the attention to a specific anatomical site, this particular region was revaluated using the molecular imaging data. Judged visually, there also had to be clearly detectable lesion to be accounted as true SRI positive as this was the main focus of interest of the present study. However, all lesions were documented, whether identified on CT images or by SRI. Findings were reported according to their respective anatomical site and if possible absolute numbers of lesions per organ system. […] While still remaining blinded to the opposite SRI results, this disparity was tried to balance by additionally providing the team evaluating ^111In-pentreotide SPECT-CT scans with the findings from contrast enhanced diagnostic CT. Interpretation of conventional SRI was performed based on the knowledge of normal tissue accumulation of ^111In-pentreotide. Interpretation of the findings from the new PET method was carried out in a similar manner being aware of possible differences regarding residence times and excretion patterns of the new tracer. Confirmation of the pointed-out lesions was sought by routine follow-up including CT, MRI, conventional SRI and biopsy if possible. Newly detected lesions on co-registered CT imaging were accepted for confirmations as well. Semi-quantitative analysis of tissue radioactivity concentrations was performed by drawing volumes of interests (VOI) around detected lesions and encompassing normal tissues with appreciable tracer uptake on fused PET-CT images.
# somatostatin receptor = assay: as above
# Text: as §1, §2, §3
# neuroendocrine tumor = assay: Comparative lesion detection, 64Cu-DOTATATE PET versus 111In-DTPA-octreotide SPECT; assay type: in vivo, human
# Text: as §1, §2
# ^111In-pentreotide was intravenously applied with a target dose of 200 MBq. The scans consisted of whole body planar scintigraphy and SPECT-CT: Planar images were acquired at 24 h (anterior and posterior whole-body scan, scan speed 5 cm/min, 512*1.024 matrix) and at 48 h (15 min static planar image (256*256 matrix) of the abdomen using a large field of view medium-energy collimator (Precedence 16-slice scanner, Philips Healthcare; VG Hawkeye, GE Healthcare). SPECT (20 sec/step, 128 angles, 128*128 matrix) over the abdomen was obtained at 24 or 48 h, and included also the chest if a pathological focus was suspected from the whole body scan. A low-dose CT was used as anatomical guide and for attenuation correction. SPECT and CT were fused and reviewed on dedicated workstations (EBW, Philips Healthcare; eNTEGRA, GE Healthcare).
# Planar whole-body scans/SPECT-CT and PET-CT images were evaluated by two separate teams consisting of both a nuclear medicine physician and a radiologist. Both teams were briefed about the patients past medical history. When abnormal findings only detected on co-registered CT had led the attention to a specific anatomical site, this particular region was revaluated using the molecular imaging data. Judged visually, there also had to be clearly detectable lesion to be accounted as true SRI positive as this was the main focus of interest of the present study. However, all lesions were documented, whether identified on CT images or by SRI. Findings were reported according to their respective anatomical site and if possible absolute numbers of lesions per organ system.
# [2] = human, in vivo
# Text: No additional radiochemical purification step was required. […] The mean administered activity was 207 6 10 MBq (range, 193-232 MBq). […] This side effect was probably due to the somatostatin analog contained in the tracer.
# [3] = in vivo
smiles,measurement,setting,value
"CC(O)[C@H](NC(=O)[C@@H]1CSSC[C@H](NC(=O)[C@@H](Cc2ccccc2)NC(=O)CN2CCN(CC(=O)O)CCN(CC(=O)O)CCN(CC(=O)O)CC2)C(=O)N[C@@H](Cc2ccc(O)cc2)C(=O)N[C@H](Cc2c[nH]c3ccccc23)C(=O)N[C@@H](CCCCN)C(=O)N[C@@H](C(C)O)C(=O)N1)C(=O)O (stereo partly shown) [64Cu-DOTATATE, metal not drawn]",SUV,[1],≤ 20 SUV
same,activity distribution on late scan,somatostatin receptor; 24 h after injection,activity washout from most organs and lesions
same,SUVmax range,"somatostatin receptor; bone lesions, 1 h",30-117
same,SUVmax range,"somatostatin receptor; bone lesions, 3 h",27-111
same,"tracer accumulation category (high, moderate, faint)",somatostatin receptor; liver and spleen,Moderate to high
same,SUVmax range,"somatostatin receptor; liver lesions, 1 h",20-81
same,SUVmax range,"somatostatin receptor; liver lesions, 3 h",26-81
same,SUVmax range,"somatostatin receptor; lymph nodes (lesions), 1 h",9-110
same,SUVmax range,"somatostatin receptor; lymph nodes (lesions), 3 h",9-115
same,"tracer accumulation category (high, moderate, faint)","somatostatin receptor; pituitary, adrenal glands, kidneys, renal pelvis, urinary bladder",High
same,"tracer accumulation category (high, moderate, faint)","somatostatin receptor; salivary glands, in 12 of 14 patients",faint to moderate
same,"tracer accumulation category (high, moderate, faint)","somatostatin receptor; thyroid gland, in 2 patients",moderate
same,image quality compared with SPECT with 111In-DTPA-octreotide,neuroendocrine tumor; PET,considerably better image quality
same,number of lymph node lesions revealed,neuroendocrine tumor; all 14 patients,98
same,Number and localization of lesions detected,neuroendocrine tumor; patient no. 2,Negative
same,Number and localization of lesions detected,neuroendocrine tumor; patient no. 4,Negative
same,Number and localization of lesions detected,neuroendocrine tumor; patient no. 5,Lymph nodes (>30)
same,Number and localization of lesions detected,neuroendocrine tumor; patient no. 7,"Pancreas (1), liver (>10) bones (>10)"
same,Number and localization of lesions detected,neuroendocrine tumor; patient no. 10,Lymph nodes (10)
same,Number and localization of lesions detected,neuroendocrine tumor; patient no. 11,Liver (>10)
same,adverse or clinically detectable pharmacologic effects,[2],no adverse or clinically detectable pharmacologic effects
same,changes in vital signs,[2],No significant changes
same,subjects who experienced self-limiting nausea,[2],4 subjects
same,absorbed dose,[3],0.19 mGy/MBq
same,estimated effective dose,[3],6.3 mSv
